Laboratory results from patent publication US20260201033A1 (LTZ THERAPEUTICS, published 2026).

Tests used:
[1] = target: T1, CD79b on Ramos cells and on endogenous B cells of human PBMCs (human, UniProt P40259 29-229); experiment: cell-based or functional assay
T1 sequence (looked up): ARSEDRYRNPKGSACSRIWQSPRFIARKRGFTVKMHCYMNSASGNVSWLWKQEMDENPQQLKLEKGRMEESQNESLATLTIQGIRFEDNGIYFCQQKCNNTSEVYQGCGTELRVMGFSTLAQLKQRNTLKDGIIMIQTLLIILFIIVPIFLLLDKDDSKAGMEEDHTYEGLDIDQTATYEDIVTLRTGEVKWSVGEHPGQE

[2] = target: T2, Human CLEC5A His Tag protein (ACROBiosystems, Cat #: CLA-H5243) (human, UniProt Q9NY25 28-188, limits assumed); experiment: ELISA, plate coated with human CLEC5A
T2 construct: Bought protein with a His tag; also called recombinant human CLEC5A protein
T2 sequence: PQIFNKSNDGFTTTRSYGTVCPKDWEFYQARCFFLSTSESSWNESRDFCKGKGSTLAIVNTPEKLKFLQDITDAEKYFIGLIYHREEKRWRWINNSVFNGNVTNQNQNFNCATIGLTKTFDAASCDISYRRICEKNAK
Method: Protein antigen was aspirated, and wells were washed 3 times with 400 μL of wash buffer (0.05% Tween® 20 in PBS) using a plate washer. Anti-CLEC5A antibodies were prepared as the primary antibody at 5 μg/mL and serially diluted 3-fold through 11 points (diluted concentrations) with reagent buffer (PBS+0.05% BSA). 100 μL of primary antibody was added to appropriate wells and incubated for 1 hour at room temperature. Primary antibody was aspirated, and wells were washed 3 times with 400 μL of wash buffer (0.05% Tween® 20 in PBS) using a plate washer. […] Secondary antibody was aspirated, and wells were washed 3 times with 400 μL of wash buffer (0.05% Tween® 20 in PBS) using a plate washer. […] 100 μL of Fisher 1N Sulfuric Acid (Cat #: SA212-2) stop solution was added to each well and the plate was read in a plate reader at 450 nm. For analysis, OD450 of each antibody was plotted using GraphPad Prism software (Version 9.4.1; GraphPad Software Inc.).

[3] = target: T1, CD79b on Ramos cells and on endogenous …; experiment: cell-based or functional assay; remark: listed apart in the source
[4] = target: T1, CD79b on Ramos cells and on endogenous …; experiment: cell-based or functional assay; remark: listed apart in the source
[5] = target: T1, CD79b on Ramos cells and on endogenous …; experiment: cell-based or functional assay; remark: listed apart in the source

B1: CD79b/5C7 (2+2 A) Fc-silenced (bispecific antibody, human IgG1, kappa, L234A L235A)
heavy: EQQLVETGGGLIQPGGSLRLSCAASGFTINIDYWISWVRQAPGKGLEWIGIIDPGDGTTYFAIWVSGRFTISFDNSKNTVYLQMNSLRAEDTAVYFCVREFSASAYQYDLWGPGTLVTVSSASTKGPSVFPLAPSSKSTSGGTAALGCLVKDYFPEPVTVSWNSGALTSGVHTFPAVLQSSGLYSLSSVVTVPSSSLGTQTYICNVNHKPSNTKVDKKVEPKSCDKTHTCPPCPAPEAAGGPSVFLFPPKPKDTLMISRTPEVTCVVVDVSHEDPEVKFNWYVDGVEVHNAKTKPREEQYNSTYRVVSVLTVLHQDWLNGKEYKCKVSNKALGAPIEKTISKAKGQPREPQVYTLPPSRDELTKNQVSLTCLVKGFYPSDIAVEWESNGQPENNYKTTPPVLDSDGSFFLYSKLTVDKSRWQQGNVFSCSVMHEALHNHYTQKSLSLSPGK
light: ELVMTQSPATLSVSPGERATLSCRASEDIENYLAWYQQKPGQPPRLLIYRASTLSSGVPARFSGSGSGTEFTLTISSLQSEDFAVYYCQQGYRNSNVDNPFGGGTKVEIKRTVAAPSVFIFPPSDEQLKSGTASVVCLLNNFYPREAKVQWKVDNALQSGNSQESVTEQDSKDSTYSLSSTLTLSKADYEKHKVYACEVTHQGLSSPVTKSFNRGECGGGGSGGGGSGGGGSDIQMTQSPSSLSASVGDRVTITCQASESVDRNNRLAWFQQKPGKPPKLLIYTTSTLASGVPSRFSGSGSGTDFTLTISSLQPEDVATYYCAGYRGAHTDGDAFGGGTKVEIKGGGGSGGGGSGGGGSGGGGSEQQLVESGGGLVKPGGSLRLSCAASGFSFSRSSYMCWVRQAPGKGLEWIGCLSVGDGHTYYASWAKGRFTISKDSAKNSVYLQMNSLRAEDTAVYFCARAPSYSGDGGHGYDLWGPGTLVTVSS
IC50 (nM), Ramos cell killing by M0 macrophages, Donor 159 [1]: 0.002 nM
IC50 (nM), Ramos cell killing by M0 macrophages, Donor 161 [1]: 0.0006 nM

B2: h7G10, humanized anti-CLEC5A antibody (antibody, V domains shown)
VH: EQQLVESGGGVVQPGRSLRLSCAASGFSFSSGYDMCWVRQAPGKGLEWIACIYGGRSDNVYYARWAKGRFTISKDSSTNTVFLQMNSLRAEDTAVYFCARDYLYRGYIGGGYGRSNLWGPGTLVTVSS
VL: DVQMTQSPSSVSASVGDRVTITCRASEDIENCLAWYQQKPGKPPKLLIYQASKLPSGVPSRFSGSGSGTDYTLTISSLQPEDFATYYCQNPDYMRNTDNLFGGGTKVEIK
notes: also called humanized 7G10
EC50 [2]: 0.22 nM

B3: h6A5, humanized anti-CLEC5A antibody (antibody, V domains shown)
VH: EQQLVESGGGLVQPGGSLRLSCSASGFSFSSSYYMCWVRQAPGKGLELIACIYSSSGRTWYATWVNGRFTISRDTSKNTVYLQMNSLRAEDTAVYFCARSYAGYGGYGYAYFNLWGPGTLVTVSS
VL: EIVMTQSPATLSVSPGERATLSCQASEDIYSSLAWYQQKPGQRPRLLIYDASTLASGVPARFSGSGSGTEYTLTISSLQSEDFAVYYCQNYYDSTGSGYGAAFGGGTKVEIK
notes: also called humanized 6A5
EC50 [2]: 0.33 nM

B4: h3A7, humanized anti-CLEC5A antibody (antibody, V domains shown)
VH: EQQLLESGGGLVQPGGSLRLSCAASGFSFSGMYWICWVRQAPGKGLEWIACIYTGSSTTGYASWAKGRFTISKDSSKNTVYLQMNSLRAEDTAVYFCASPYGDSSHYRGLNLWGPGTLVTVSS
VL: DVQMTQSPSSLSASVGDRVTITCQASQRINNYLSWFQQKPGKPPKLLIYGAATLASGVPSRFSGSGSGTDYTLTISSLQPEDVATYYCQCTYGIPSSNYGFGGGTKVEIK
notes: also called humanized 3A7
EC50 [2]: 0.47 nM

B5: CD79b/5C7 (2+1 A) Fc-optimized (bispecific antibody, human IgG1, kappa)
heavy 1: EQQLVETGGGLIQPGGSLRLSCAASGFTINIDYWISWVRQAPGKGLEWIGIIDPGDGTTYFAIWVSGRFTISFDNSKNTVYLQMNSLRAEDTAVYFCVREFSASAYQYDLWGPGTLVTVSSASTKGPSVFPLAPSSKSTSGGTAALGCLVKDYFPEPVTVSWNSGALTSGVHTFPAVLQSSGLYSLSSVVTVPSSSLGTQTYICNVNHKPSNTKVDKKVEPKSCDGGGGSGGGGSGGGGSEQQLVETGGGLIQPGGSLRLSCAASGFTINIDYWISWVRQAPGKGLEWIGIIDPGDGTTYFAIWVSGRFTISFDNSKNTVYLQMNSLRAEDTAVYFCVREFSASAYQYDLWGPGTLVTVSSASTKGPSVFPLAPSSKSTSGGTAALGCLVKDYFPEPVTVSWNSGALTSGVHTFPAVLQSSGLYSLSSVVTVPSSSLGTQTYICNVNHKPSNTKVDKKVEPKSCDKTHTCPPCPAPELLAGPSVFLFPPKPKDTLMISRTPEVTCVVVDVSHEDPEVKFNWYVDGVEVHNAKTKPREEQYNSTYRVVSVLTVLHQDWLNGKEYKCKVSNKALPLPEEKTISKAKGQPREPQVYTLPPSRDELTKNQVSLSCAVKGFYPSDIAVEWESNGQPENNYKTTPPVLDSDGSFFLVSKLTVDKSRWQQGNVFSCSVMHEALHNHYTQKSLSLSPGK
heavy 2: DIQMTQSPSSLSASVGDRVTITCQASESVDRNNRLAWFQQKPGKPPKLLIYTTSTLASGVPSRFSGSGSGTDFTLTISSLQPEDVATYYCAGYRGAHTDGDAFGGGTKVEIKGGGGSGGGGSGGGGSGGGGSEQQLVESGGGLVKPGGSLRLSCAASGFSFSRSSYMCWVRQAPGKGLEWIGCLSVGDGHTYYASWAKGRFTISKDSAKNSVYLQMNSLRAEDTAVYFCARAPSYSGDGGHGYDLWGPGTLVTVSSDKTHTCPPCPAPELLAGPSVFLFPPKPKDTLMISRTPEVTCVVVDVSHEDPEVKFNWYVDGVEVHNAKTKPREEQYNSTYRVVSVLTVLHQDWLNGKEYKCKVSNKALPLPEEKTISKAKGQPREPQVYTLPPSRDELTKNQVSLWCLVKGFYPSDIAVEWESNGQPENNYKTTPPVLDSDGSFFLYSKLTVDKSRWQQGNVFSCSVMHEALHNHYTQKSLSLSPGK
light: ELVMTQSPATLSVSPGERATLSCRASEDIENYLAWYQQKPGQPPRLLIYRASTLSSGVPARFSGSGSGTEFTLTISSLQSEDFAVYYCQQGYRNSNVDNPFGGGTKVEIKRTVAAPSVFIFPPSDEQLKSGTASVVCLLNNFYPREAKVQWKVDNALQSGNSQESVTEQDSKDSTYSLSSTLTLSKADYEKHKVYACEVTHQGLSSPVTKSFNRGEC
IC50 (nM), Ramos cell killing by PBMCs (test 2), Donor 234 [3]: 0.00472 nM
IC50 (nM), killing of endogenous B cells by PBMCs, Donor 234 [4]: 0.0178 nM
IC50 (nM), Ramos cell killing by M0 macrophages, Donor 022 [1]: 0.002 nM
IC50 (nM), Ramos cell killing by M2 macrophages, Donor 022 [5]: 0.002 nM

B6: CD79b/5C7 (1+1 A) Fc-optimized (bispecific antibody, human IgG1, kappa)
heavy 1: EQQLVETGGGLIQPGGSLRLSCAASGFTINIDYWISWVRQAPGKGLEWIGIIDPGDGTTYFAIWVSGRFTISFDNSKNTVYLQMNSLRAEDTAVYFCVREFSASAYQYDLWGPGTLVTVSSASTKGPSVFPLAPSSKSTSGGTAALGCLVKDYFPEPVTVSWNSGALTSGVHTFPAVLQSSGLYSLSSVVTVPSSSLGTQTYICNVNHKPSNTKVDKKVEPKSCDKTHTCPPCPAPELLAGPSVFLFPPKPKDTLMISRTPEVTCVVVDVSHEDPEVKFNWYVDGVEVHNAKTKPREEQYNSTYRVVSVLTVLHQDWLNGKEYKCKVSNKALPLPEEKTISKAKGQPREPQVYTLPPSRDELTKNQVSLSCAVKGFYPSDIAVEWESNGQPENNYKTTPPVLDSDGSFFLVSKLTVDKSRWQQGNVFSCSVMHEALHNHYTQKSLSLSPGK
heavy 2: EQQLVESGGGLVKPGGSLRLSCAASGFSFSRSSYMCWVRQAPGKGLEWIGCLSVGDGHTYYASWAKGRFTISKDSAKNSVYLQMNSLRAEDTAVYFCARAPSYSGDGGHGYDLWGPGTLVTVSSASTKGPSVFPLAPSSKSTSGGTAALGCLVKDYFPEPVTVSWNSGALTSGVHTFPAVLQSSGLYSLSSVVTVPSSSLGTQTYICNVNHKPSNTKVDKKVEPKSCDKTHTCPPCPAPELLAGPSVFLFPPKPKDTLMISRTPEVTCVVVDVSHEDPEVKFNWYVDGVEVHNAKTKPREEQYNSTYRVVSVLTVLHQDWLNGKEYKCKVSNKALPLPEEKTISKAKGQPREPQVYTLPPSRDELTKNQVSLWCLVKGFYPSDIAVEWESNGQPENNYKTTPPVLDSDGSFFLYSKLTVDKSRWQQGNVFSCSVMHEALHNHYTQKSLSLSPGK
light 1: ELVMTQSPATLSVSPGERATLSCRASEDIENYLAWYQQKPGQPPRLLIYRASTLSSGVPARFSGSGSGTEFTLTISSLQSEDFAVYYCQQGYRNSNVDNPFGGGTKVEIKRTVAAPSVFIFPPSDEQLKSGTASVVCLLNNFYPREAKVQWKVDNALQSGNSQESVTEQDSKDSTYSLSSTLTLSKADYEKHKVYACEVTHQGLSSPVTKSFNRGEC
light 2: DIQMTQSPSSLSASVGDRVTITCQASESVDRNNRLAWFQQKPGKPPKLLIYTTSTLASGVPSRFSGSGSGTDFTLTISSLQPEDVATYYCAGYRGAHTDGDAFGGGTKVEIKRTVAAPSVFIFPPSDEQLKSGTASVVCLLNNFYPREAKVQWKVDNALQSGNSQESVTEQDSKDSTYSLSSTLTLSKADYEKHKVYACEVTHQGLSSPVTKSFNRGEC
IC50 (nM), Ramos cell killing by PBMCs (test 2), Donor 234 [3]: 0.338 nM

B7: h5C7, humanized anti-CLEC5A antibody (antibody, V domains shown)
VH: EQQLVESGGGLVKPGGSLRLSCAASGFSFSRSSYMCWVRQAPGKCLEWIGCLSVGDGHTYYASWAKGRFTISKDSAKNSVYLQMNSLRAEDTAVYFCARAPSYSGDGGHGYDLWGPGTLVTVSS
VL: DIQMTQSPSSLSASVGDRVTITCQASESVDRNNRLAWFQQKPGKPPKLLIYTTSTLASGVPSRFSGSGSGTDFTLTISSLQPEDVATYYCAGYRGAHTDGDAFGCGTKVEIK
notes: also called humanized 5C7
EC50 [2]: 0.44 nM
